Values belong to the substance of their own block, whether it stands above or below them.
How the values were obtained:
[1] = molecular target: BMP10 (human (by the printed accession)) (UniProt O95393)
[2] = molecular target: activin B (human (by the printed accession)) (UniProt P09529)
[3] = molecular target: BMPR2 GBD-Fc (WT) (human) (UniProt Q13873); test: SPR; BIAcore 3000; receptor-Fc (about 500 RU BMPR2-Fc WT or variants, 150 RU ACVR2A-Fc) captured on immobilised anti-human IgG (Fc), CM5 chip; single injections of 80 nM GF, single curve fits, averages of two independent injections; 25 °C; HBS/EPS (0.01 M Hepes, 0.5 M NaCl, 3 mM EDTA, 0.005% Tween 20, pH 7.4) with 0.1% bovine serum albumin; 50 μl/min; 1:1 binding model, KD = kd/ka
BMPR2 GBD-Fc (WT) (human), sequence (Q13873 whole entry): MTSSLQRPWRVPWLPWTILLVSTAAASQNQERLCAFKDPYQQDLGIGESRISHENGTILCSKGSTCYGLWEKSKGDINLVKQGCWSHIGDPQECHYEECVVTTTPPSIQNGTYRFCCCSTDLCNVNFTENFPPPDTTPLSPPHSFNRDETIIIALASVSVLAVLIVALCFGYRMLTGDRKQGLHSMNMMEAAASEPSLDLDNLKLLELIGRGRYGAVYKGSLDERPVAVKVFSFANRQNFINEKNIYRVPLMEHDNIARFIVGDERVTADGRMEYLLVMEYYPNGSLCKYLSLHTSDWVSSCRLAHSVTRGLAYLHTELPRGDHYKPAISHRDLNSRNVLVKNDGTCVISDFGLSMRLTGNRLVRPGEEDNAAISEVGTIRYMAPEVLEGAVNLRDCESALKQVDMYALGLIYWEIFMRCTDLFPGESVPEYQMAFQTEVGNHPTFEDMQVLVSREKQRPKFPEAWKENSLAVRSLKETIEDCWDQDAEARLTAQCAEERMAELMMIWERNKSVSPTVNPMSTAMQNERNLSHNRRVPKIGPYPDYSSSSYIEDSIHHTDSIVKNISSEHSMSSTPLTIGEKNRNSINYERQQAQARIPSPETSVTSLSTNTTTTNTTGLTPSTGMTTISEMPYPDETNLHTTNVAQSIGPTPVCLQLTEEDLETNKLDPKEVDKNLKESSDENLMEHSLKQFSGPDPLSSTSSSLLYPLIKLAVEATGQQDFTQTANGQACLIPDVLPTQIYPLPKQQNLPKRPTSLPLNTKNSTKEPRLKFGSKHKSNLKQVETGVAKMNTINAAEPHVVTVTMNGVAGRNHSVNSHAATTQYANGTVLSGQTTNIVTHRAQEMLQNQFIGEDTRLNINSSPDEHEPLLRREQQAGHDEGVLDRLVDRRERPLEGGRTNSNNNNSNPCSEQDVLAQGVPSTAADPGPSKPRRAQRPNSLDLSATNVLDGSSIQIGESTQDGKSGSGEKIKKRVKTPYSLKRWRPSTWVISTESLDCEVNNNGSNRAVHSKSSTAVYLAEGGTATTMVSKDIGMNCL

[4] = molecular target: BMP10 (human (by the printed accession)) (UniProt O95393); remark: listed apart in the source
ACVR2A GBD-Fc (human) [5] = molecular target: ACVR2A GBD-Fc (human) (UniProt P27037); test: SPR; BIAcore 3000; receptor-Fc (about 500 RU BMPR2-Fc WT or variants, 150 RU ACVR2A-Fc) captured on immobilised anti-human IgG (Fc), CM5 chip; single injections of 80 nM GF, single curve fits, averages of two independent injections; 25 °C; HBS/EPS (0.01 M Hepes, 0.5 M NaCl, 3 mM EDTA, 0.005% Tween 20, pH 7.4) with 0.1% bovine serum albumin; 50 μl/min; 1:1 binding model, KD = kd/ka
ACVR2A GBD-Fc (human), sequence (P27037 whole entry): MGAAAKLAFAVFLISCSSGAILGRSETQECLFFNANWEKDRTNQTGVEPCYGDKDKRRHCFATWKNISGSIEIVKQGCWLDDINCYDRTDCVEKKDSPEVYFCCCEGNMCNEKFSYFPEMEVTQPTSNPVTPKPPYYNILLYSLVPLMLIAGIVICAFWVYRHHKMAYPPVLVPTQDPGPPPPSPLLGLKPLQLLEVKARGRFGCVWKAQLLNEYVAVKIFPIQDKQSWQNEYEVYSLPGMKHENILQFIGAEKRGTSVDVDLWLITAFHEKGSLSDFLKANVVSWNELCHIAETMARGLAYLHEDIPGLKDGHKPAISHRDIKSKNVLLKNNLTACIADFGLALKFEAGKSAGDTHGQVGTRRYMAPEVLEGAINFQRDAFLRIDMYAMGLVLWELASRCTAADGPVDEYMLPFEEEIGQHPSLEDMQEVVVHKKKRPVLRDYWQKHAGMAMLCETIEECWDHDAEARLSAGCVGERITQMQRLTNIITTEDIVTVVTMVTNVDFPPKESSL

ACVR2A GBD-Fc (human) [6] = molecular target: ACVR2A GBD-Fc (human) (UniProt P27037); test: SPR; BIAcore 3000; receptor-Fc captured on immobilised anti-human IgG (Fc), CM5 chip; titration, global fit of 2.5, 5.0, 10.0, 20.0 and 40.0 nM GF injections; 25 °C; HBS/EPS (0.01 M Hepes, 0.5 M NaCl, 3 mM EDTA, 0.005% Tween 20, pH 7.4) with 0.1% bovine serum albumin; 50 μl/min; 1:1 binding model, KD = kd/ka

BMP7, sequence (P18075 293-431): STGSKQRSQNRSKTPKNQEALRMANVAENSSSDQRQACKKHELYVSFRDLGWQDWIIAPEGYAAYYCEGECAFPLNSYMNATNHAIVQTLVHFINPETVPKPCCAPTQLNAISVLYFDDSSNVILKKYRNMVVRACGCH
BMP10 (human (by the printed accession)), sequence (O95393 317-424): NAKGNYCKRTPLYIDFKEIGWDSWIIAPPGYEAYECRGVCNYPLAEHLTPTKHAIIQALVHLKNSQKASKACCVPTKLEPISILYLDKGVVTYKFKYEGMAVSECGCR
activin B (human (by the printed accession)), sequence (P09529 293-407): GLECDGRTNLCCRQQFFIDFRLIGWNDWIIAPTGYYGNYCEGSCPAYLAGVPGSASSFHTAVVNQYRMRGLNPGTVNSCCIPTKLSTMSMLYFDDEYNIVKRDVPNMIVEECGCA

Substance: ACVR2A GBD-Fc (from UniProt P27037 20-120) (Fc fusion)
- IC50 of inhibition of signalling by 5 nM BMP10 in stably transfected HEK293 BRE (SMAD1/5/8) luciferase reporter cells, 0-400 nM receptor-Fc [1]: 187 nM
- IC50 of inhibition of signalling by 5 nM activin B in stably transfected HEK293 SBE (SMAD2/3) luciferase reporter cells, 0-400 nM receptor-Fc [2]: 14 nM

Substance: BMP7 (from UniProt P18075 293-431) (ligand)
- Kd [3]: 13 nM
- koff [3]: 0.0071 s⁻¹
- kon [3]: 520000 M⁻¹ s⁻¹

Substance: BMPR2-Fc variant Q42R (from UniProt Q13873 27-138) (Fc fusion)
- IC50 of inhibition of signalling by 5 nM BMP10 in stably transfected HEK293 reporter cells [4]: 54 nM

Substance: BMPR2-Fc variant Q92H (from UniProt Q13873 27-138) (Fc fusion)
- IC50 of inhibition of signalling by 5 nM BMP10 in stably transfected HEK293 reporter cells [4]: 10 nM

Substance: activin A (from UniProt P08476 311-426) (ligand)
- Kd (ACVR2A GBD-Fc (human) [5]): 0.09 nM
- koff (ACVR2A GBD-Fc (human) [5]): 0.00019 s⁻¹
- kon (ACVR2A GBD-Fc (human) [5]): 2.1e+06 M⁻¹ s⁻¹
- Kd [3]: 9.6 nM
- koff [3]: 0.0036 s⁻¹
- kon [3]: 370000 M⁻¹ s⁻¹
- Kd (ACVR2A GBD-Fc (human) [6]): 0.018 nM
- koff (ACVR2A GBD-Fc (human) [6]): 1.2e-05 s⁻¹
- kon (ACVR2A GBD-Fc (human) [6]): 600000 M⁻¹ s⁻¹

The next lines start with the values.

- IC50 of inhibition of signalling by 5 nM BMP10 in stably transfected HEK293 BRE (SMAD1/5/8) luciferase reporter cells, 0-400 nM receptor-Fc [1]: 35 nM
Substance: BMPR2 GBD-Fc (WT) (from UniProt Q13873 27-138) (Fc fusion)

- IC50 of inhibition of signalling by 5 nM BMP10 in stably transfected HEK293 reporter cells [4]: 10 nM
Substance: BMPR2-Fc variant G47D (from UniProt Q13873 27-138) (Fc fusion)

- IC50 of inhibition of signalling by 5 nM BMP10 in stably transfected HEK293 reporter cells [4]: 7 nM
Substance: BMPR2-Fc variant S107P (from UniProt Q13873 27-138) (Fc fusion)
